B1: SPOPL (parent)
chain: PDDKLTLFCEVSVVQDSVNISGHT

Variants of: B1
Test: protein stability index of a GFP-peptide fusion (GPS, HEK-293T) (PSI 1-6); higher = more stable
Settings: c terminus: a fixed tail appended
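Note: lentivirally expressed fusions sorted by FACS into six bins by GFP to DsRed ratio, PSI derived from sequencing read proportions per bin multiplied by bin number.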

First: PDDKLTLFCESSVVQDSVNISGHT [V11S]
Second: PDDKLTLFCETSVVQDSVNISGHT [V11T]
The protein stability index of the first is higher: 4.47 for the first, 4.26 for the second.

Going from PDDKLTLFCEQSVVQDSVNISGHT [V11Q] to PDDKLTLFCEESVVQDSVNISGHT [V11E], the protein stability index rises from 4.62 to 4.81.

Going from PDDKLTLFCERSVVQDSVNISGHT [V11R] to PDDKLTLFCEYSVVQDSVNISGHT [V11Y], the protein stability index falls from 3.67 to 2.46.

Compared with PDDKLTLFCEDSVVQDSVNISGHT [V11D], PDDKLTLFCEKSVVQDSVNISGHT [V11K] is higher in protein stability index: 4.64 for the first, 4.85 for the second.

Going from PDDKLTLFCEASVVQDSVNISGHT [V11A] to PDDKLTLFCELSVVQDSVNISGHT [V11L], the protein stability index falls from 4.34 to 1.93.

First: PDDKLTLFCEHSVVQDSVNISGHT [V11H]
Second: PDDKLTLFCEWSVVQDSVNISGHT [V11W]
The protein stability index of the first is higher: 4.28 for the first, 2.14 for the second.

Compared with PDDKLTLFCEFSVVQDSVNISGHT [V11F], PDDKLTLFCEMSVVQDSVNISGHT [V11M] is higher in protein stability index: 2.61 for the first, 2.77 for the second.

Compared with PDDKLTLFCECSVVQDSVNISGHT [V11C], PDDKLTLFCEISVVQDSVNISGHT [V11I] is lower in protein stability index: 3.34 for the first, 1.95 for the second.

First: PDDKLTLFCEGSVVQDSVNISGHT [V11G]
Second: PDDKLTLFCEPSVVQDSVNISGHT [V11P]
The protein stability index of the first is higher: 4.76 for the first, 4.58 for the second.

Compared with PDDKLTLFCENSVVQDSVNISGHT [V11N], PDDKLTLFCEVSVVGDSVNISGHT [Q15G] is lower in protein stability index: 4.78 for the first, 1.97 for the second.

First: PDDKLTLFCEVSVVADSVNISGHT [Q15A]
Second: PDDKLTLFCEVSVVEDSVNISGHT [Q15E]
The protein stability index of the first is lower: 1.71 for the first, 3.4 for the second.

First: PDDKLTLFCEVSVVFDSVNISGHT [Q15F]
Second: PDDKLTLFCEVSVVSDSVNISGHT [Q15S]
The protein stability index of the first is higher: 3.28 for the first, 2.44 for the second.

Going from PDDKLTLFCEVSVVDDSVNISGHT [Q15D] to PDDKLTLFCEVSVVRDSVNISGHT [Q15R], the protein stability index falls from 3.19 to 1.44.

Going from PDDKLTLFCEVSVVHDSVNISGHT [Q15H] to PDDKLTLFCEVSVVPDSVNISGHT [Q15P], the protein stability index rises from 1.28 to 3.1.

Compared with PDDKLTLFCEVSVVNDSVNISGHT [Q15N], PDDKLTLFCEVSVVTDSVNISGHT [Q15T] is higher in protein stability index: 1.97 for the first, 2.31 for the second.

Going from PDDKLTLFCEVSVVKDSVNISGHT [Q15K] to PDDKLTLFCEVSVVQDSVAISGHT [N19A], the protein stability index rises from 2.12 to 2.53.

Compared with PDDKLTLFCEVSVVQDSVQISGHT [N19Q], PDDKLTLFCEVSVVQDSVTISGHT [N19T] is lower in protein stability index: 1.39 for the first, 1.35 for the second.

Going from PDDKLTLFCEVSVVQDSVSISGHT [N19S] to PDDKLTLFCEVSVVQDSVKISGHT [N19K], the protein stability index falls from 3.03 to 1.92.

First: PDDKLTLFCEVSVVQDSVIISGHT [N19I]
Second: PDDKLTLFCEVSVVQDSVDISGHT [N19D]
The protein stability index of the first is lower: 1.39 for the first, 2.41 for the second.

First: PDDKLTLFCEVSVVQDSVRISGHT [N19R]
Second: PDDKLTLFCEVSVVQDSVCISGHT [N19C]
The protein stability index of the first is higher: 1.2 for the first, 1.05 for the second.

Compared with PDDKLTLFCEVSVVQDSVPISGHT [N19P], PDDKLTLFCEVSVVQDSVGISGHT [N19G] is lower in protein stability index: 2.29 for the first, 1.74 for the second.

Going from PDDKLTLFCEVSVVQDSVVISGHT [N19V] to PDDKLTLFCEVSPVQDSVNISGHT [V13P], the protein stability index rises from 2.65 to 3.99.

First: PDDKLTLFCEVSEVQDSVNISGHT [V13E]
Second: PDDKLTLFCEVSQVQDSVNISGHT [V13Q]
The protein stability index of the first is higher: 4.61 for the first, 3.95 for the second.

Compared with PDDKLTLFCEVSSVQDSVNISGHT [V13S], PDDKLTLFCEVSWVQDSVNISGHT [V13W] is lower in protein stability index: 3.6 for the first, 2.73 for the second.

First: PDDKLTLFCEVSRVQDSVNISGHT [V13R]
Second: PDDKLTLFCEVSFVQDSVNISGHT [V13F]
The protein stability index of the first is higher: 4.14 for the first, 2.03 for the second.

Compared with PDDKLTLFCEVSNVQDSVNISGHT [V13N], PDDKLTLFCEVSHVQDSVNISGHT [V13H] is lower in protein stability index: 4.03 for the first, 3.63 for the second.

Going from PDDKLTLFCEVSMVQDSVNISGHT [V13M] to PDDKLTLFCEVSLVQDSVNISGHT [V13L], the protein stability index falls from 2.12 to 2.02.

First: PDDKLTLFCEVSDVQDSVNISGHT [V13D]
Second: PDDKLTLFCEVSYVQDSVNISGHT [V13Y]
The protein stability index of the first is higher: 4.61 for the first, 1.94 for the second.

Going from PDDKLTLFCEVSKVQDSVNISGHT [V13K] to PDDKLTLFCEVSGVQDSVNISGHT [V13G], the protein stability index rises from 3.11 to 4.14.

First: PDDKLTLFCEVSIVQDSVNISGHT [V13I]
Second: PDDKLTLFCEVSCVQDSVNISGHT [V13C]
The protein stability index of the first is lower: 2.51 for the first, 2.57 for the second.

Going from PDDKLTLFCEVSAVQDSVNISGHT [V13A] to PDDKLTLFCEVSTVQDSVNISGHT [V13T], the protein stability index rises from 3.35 to 3.79.

First: PDDKLTLFCEVSVVQGSVNISGHT [D16G]
Second: PDDKLTLFCEVSVVQPSVNISGHT [D16P]
The protein stability index of the first is higher: 2.01 for the first, 1.49 for the second.

Going from PDDKLTLFCEVSVVQRSVNISGHT [D16R] to PDDKLTLFCEVSVVQASVNISGHT [D16A], the protein stability index rises from 1.21 to 2.28.

Compared with PDDKLTLFCEVSVVQESVNISGHT [D16E], PDDKLTLFCEVSVVQSSVNISGHT [D16S] is higher in protein stability index: 1.33 for the first, 2.32 for the second.

First: PDDKLTLFCEVSVVQHSVNISGHT [D16H]
Second: PDDKLTLFCEVSVVQKSVNISGHT [D16K]
The protein stability index of the first is lower: 1.15 for the first, 1.66 for the second.

Compared with PDDKLTLFCEVSVVQWSVNISGHT [D16W], PDDKLTLFCEVSVVQTSVNISGHT [D16T] is lower in protein stability index: 2.43 for the first, 1.53 for the second.

Compared with PDDKLTLFCEVSVVQQSVNISGHT [D16Q], PDDKLTLFCEVSVVQVSVNISGHT [D16V] is higher in protein stability index: 1.27 for the first, 3.7 for the second.

First: PDDKLTLFCEVSVVQNSVNISGHT [D16N]
Second: PDDKLTLFCRVSVVQDSVNISGHT [E10R]
The protein stability index of the first is lower: 1.8 for the first, 1.94 for the second.

Going from PDDKLTLFCAVSVVQDSVNISGHT [E10A] to PDDKLTLFCVVSVVQDSVNISGHT [E10V], the protein stability index rises from 2.48 to 3.33.

Compared with PDDKLTLFCIVSVVQDSVNISGHT [E10I], PDDKLTLFCPVSVVQDSVNISGHT [E10P] is higher in protein stability index: 2.63 for the first, 3.44 for the second.

Compared with PDDKLTLFCTVSVVQDSVNISGHT [E10T], PDDKLTLFCDVSVVQDSVNISGHT [E10D] is lower in protein stability index: 3.3 for the first, 2.76 for the second.

Going from PDDKLTLFCKVSVVQDSVNISGHT [E10K] to PDDKLTLFCSVSVVQDSVNISGHT [E10S], the protein stability index rises from 1.45 to 1.58.

First: PDDKLTLFCWVSVVQDSVNISGHT [E10W]
Second: PDDKLTLFCNVSVVQDSVNISGHT [E10N]
The protein stability index of the first is lower: 2.53 for the first, 2.74 for the second.

Compared with PDDKLTLFCFVSVVQDSVNISGHT [E10F], PDDKLTLFCGVSVVQDSVNISGHT [E10G] is lower in protein stability index: 3.15 for the first, 2.52 for the second.

Going from PDDKLTLFCQVSVVQDSVNISGHT [E10Q] to PDDKLTLFCCVSVVQDSVNISGHT [E10C], the protein stability index rises from 2.27 to 2.81.

Compared with PDDKLTLFCHVSVVQDSVNISGHT [E10H], PDDKLTLFCLVSVVQDSVNISGHT [E10L] is higher in protein stability index: 2.12 for the first, 3.02 for the second.

Compared with PDDKLTLFCMVSVVQDSVNISGHT [E10M], PDDKLTLFTEVSVVQDSVNISGHT [C9T] is higher in protein stability index: 3.02 for the first, 3.83 for the second.

From the supplement of paper PMC10567573
